Tests used:
[1] = target: T148-ADP-ribosylated-actin (100% TccC3-ADP-ribosylated actin) (not stated (purified from rabbit or chicken skeletal muscle)) (UniProt P68135); assay: fluorescence polarisation
[2] = target: Skeletal actin, unmodified (0% ADPR-actin control) (not stated (purified from rabbit or chicken skeletal muscle)) (UniProt P68135)

Substance: Thymosin-β4 (peptide)
- fold reduction of affinity against unmodified actin [1]: 6.4 fold
- time at which 50% of actin is polymerized (t1/2); 2.5 µM pyrene-labeled (5%) G-actin, 0% modified, with 2.5 µM TMSB4 [2]: 2.04 h

Reference: article PMC9266650
